B1: CAL1-HA (in S2 cells) [Drosophila melanogaster] / GFP-LacI-CENP-C (in S2 cells) [Drosophila melanogaster] (parent complex)
chain 1: MANAVVDEETLEAMVYERSKAWSSKMADFASLEDGMEIDVAEFDNLFHGEDEDPDLDDVAKEAVEDNVPDEAKLEMGHINATSVTELTLILCANEDNEAKAEIEEILNQTVPVVEEHKRKWREAGLDRILDTFDEKQIEHHVGRWMRRHNSVYLEASPPKYLPPHHNSISDESDESMHSIDTARYIQQSRRRNAHMTNKNMTTIKMYRKHSHKRDELRAKYAYGDEQEHRHHMQAVLLRRRERERQLAYLASTPMQCVYSSGHHMRRKNLRKRRINSWMFDSASSSEEDTSFGGCDCHSCRRHYALSRSVYQSCPYGRGQREYHHRQMASRTMHTMRRQHTFDMEMDLRPRLPENECSCCNSDRLCSNVIHIANSSTEEWVVENRSNHLTQETQEKTRKQKHQPMDARKVSHQPVCSKGHEQKPLSSKATSVSKLVLSKEKYMQMFDSESSDEDNALAKKGLLCCSDKKKGMTFPTPNAAGKITHPTSSAKKAIRKEARPNGLAQIQEEGPTATNSPIESTYLPVAHMKSVSIDGSSGTSATFESPAKKAPKRGIRETSPLNGNELQQLISTIPIADEKASSLMEKVDNCIGRESFDDRNKDFMHMENSSTKTAVEKSTKQKRVSGKKSEIPKSIITNNEILEKNSTETLSEKQVAAKAKKQSVRKTGATGKPSTSRLKKSEKTKTTSSVTSTSKLEQVREEESDVSSEVLAKPKPQCSTTASILKQGGDGASNSEDDLQIALAMSKATYKEEQQKRKKTKREPSNKQPQSPAEKSMTVFNNQSVACNSTALANDTACYRVLPKRRGVKRAAAVSTTEEKTATNSSSSPTSSLEEMGSPTGGDPDCTVVTSTTGCEPPASERQEIPATIKITKRGILLHSPSAPEGASFTLTEQGLGKIIGERWARKYLKYHIGSRSFDSRHSVYYQPTPQLAAALSAPQDAQNIGNISGSSASDDDIFEQINRYGTVYSILENNSGDK
chain 2: MSKPQNNDTLELDDILSQPVKDKERFAAFMMRKLAENKPAQNDNLFGNFKLDFDLDFEVPLIKKSQAKPKSKLPEVQPLGELVSKNSAATEKVNEPPVDQAPNENVPPRRSPTLSPNNRRSMRRSGNVPGSDKLRRHAIRRRSRSCGRQLLPEFEETVNLTRSISSPVNFLPEISSTPCTEKQKEEVAKNTTRVETDKPAEKPMELSQEPEPENPLQTKVTSPARNPILAAEIEQICKERQSSFHKNVLQLDYSGRAPYSRPPTPSSPSVAGLRRTYTMEKGPAPGQLLLSPSHRYDTPSKMPVVKAKRFNQELMVPDTPERQSHDPAWQSEPQPEFVVPETQPQDLGELVQTLSRSAISPIVVINTSNSNRSVRRDAVAMKSVPTSPVTALSSPPIAPSPRRSAAASPQKSIAQLPRVEENMDAIMTDDESDEHPSTVPLNLAPSGGNTTRQRRLRSSNRARATIESQESSMRLLNLHKSVNAKKSKPRKTAIPLNKAPSAPINGEQFARELTRMSNYEILDLRKRNSLNEIYPLNGHRNHRSEKLILEEEIQRELLRRNLMDEAEGLPKQQSSDDSNEDYIPVPPKTQSLRTKSNDRSQGRGRPRSTRRDLPMTTELVNYLGLSQTLETRRKSSKDGKRCLYTKGSSDHEDNDSLSPVKLPRLSKSIQIVPPPPVSLRYSQSLQNLPCSGKFDFDNVVMAAPPDFHDSVNSDAIEIAPPPPEYVVNTRGRSTSGRKSNKNDLVLPPPGYEGGQEEEHDERPSQPRCTAKELQQSTQNGRRAMENELVPPPIEYVEEENRNNEQSRRSTKNGNLVDRNTHNAVEYCEPPEPPEYDDSDHGQASILRRSGKKLQHSKQSVQKSNKEQIIAPSYENNEDYDSDEEPIYNEEYGKEESQNKNVTRRKSDKDEMASHTLECIEGPDPNWNSSCNKQNRNHQNASKSKENDKLANRSSKSQKLSNPRQNAVGTEKSVALSNRGEECTEKSSDVMESLRVNTPTPPIDQNSDDVPSRNPSPSRTLLSDDVPSTSRAALEFLQRSQNMSKSRPPDESSADVVFKKPLAPAPRAKSKKGKSEVDKLKLAKMPVEAEELNTTGIRRSKRGQVPLQMSWCHTMDPSKFNFMSGFIEPRSKNSKTKKGNLSKAKKASATKPKPTVEKNLPDNRGPLCSSTPRISEKLPGAIPHSESLGLSTLTWEETEVQAEAEKVPKKRGRPKKAVGGVQTDTEAEPEPEPEPMISSVAPLTSDQEEPDVPDEQAPYTEAALGPVVFSTPLRDEQEEASTKLMQWLRGVGDAPPSASMSDENASVSSANELIFCQVDGIDYAFYNTKEKAMLGYMRFKPYQKRSMKQAKVHPLKLLVQFGEFNVETLAVGEEKEVHSVLRVGDMIEIDRGTRYSIQNAIDKVSVLMCIRS
B2: His-CAL1(1-160) [Drosophila melanogaster] / CENP-A(101-225)-H4 [Drosophila melanogaster] (parent complex)
chain 1: MANAVVDEETLEAMVYERSKAWSSKMADFASLEDGMEIDVAEFDNLFHGEDEDPDLDDVAKEAVEDNVPDEAKLEMGHINATSVTELTLILCANEDNEAKAEIEEILNQTVPVVEEHKRKWREAGLDRILDTFDEKQIEHHVGRWMRRHNSVYLEASPPK
chain 2: QQESKTRAAGPVAAQNQTRRRKAANPMSRAKRMDREIRRLQHHPGTLIPKLPFSRLVREFIVKYSDDEPLRVTEGALLAMQESCEMYLTQRLADSYMLTKHRNRVTLEVRDMALMAYICDRGRQF
chain 3: not shown
B3: CAL1-V5 (in U2OS cells) [Drosophila melanogaster] / CENP-A-GFP-LacI (in U2OS cells) [Drosophila melanogaster] (parent complex)
chain 1: B1 chain 1
chain 2: MPRHSRAKRAPRPSANNSKSPNDDDTAFRSPEPEDGTDYGLEFTTSQLTLQDNNRRSSTLRRDAGRRQPAARDSSTSGEEEDQENRYPTTRSPQTRRMTVQQESKTRAAGPVAAQNQTRRRKAANPMSRAKRMDREIRRLQHHPGTLIPKLPFSRLVREFIVKYSDDEPLRVTEGALLAMQESCEMYLTQRLADSYMLTKHRNRVTLEVRDMALMAYICDRGRQF

In one assay the parent is B1. Briefly: LacO/LacI tethering assay in U2OS cells (fluorescence intensity of CAL1-V5 at the tethering site); parent: 2.1e+03; read off a plot.
On to chain 1 I900R, chain 1 K907A, chain 1 Y908A, for which the response was roughly 300 a.u.

In a further assay the parent is B1. Briefly: LacO/LacI tethering assay in Drosophila S2 cells (fluorescence intensity of CAL1-HA at the tethering site); parent: 650; read off a plot.
On to chain 1 I900R, chain 1 K907A, chain 1 Y908A, for which the response was roughly 12 a.u.

In another assay the parent is B1. In words: LacO/LacI tethering assay in U2OS cells (fluorescence intensity of CAL1-V5 at the tethering site); parent: 2.1e+03; read off a plot. The source holds these as a separate data set.
On to chain 2 F1324R, for which the response is roughly 300 a.u. chain 2 L1357E, chain 2 M1407E: the response is roughly 490 a.u.

The variants in the next assay derive from B1. Briefly: LacO/LacI tethering assay in Drosophila S2 cells (fluorescence intensity of CAL1-HA at the tethering site); parent: 650; read off a plot. The source holds these as a separate data set.
In the case of chain 2 F1324R, the response was roughly 35 a.u. chain 2 L1357E, chain 2 M1407E: the response was roughly 60 a.u.

In a further assay the parent is B2. In words: Ni-NTA pull-down, band intensity quantification; parent: 4.1; read off a plot.
Turning to chain 2 S54Q, chain 2 M86A, chain 2 Q90G, the response is ~0.85 ratio CENP-A101-225/H4:CAL11-160. Same read-out and setting: the figure for chain 2 M86A is ~3.6 ratio CENP-A101-225/H4:CAL11-160; for chain 2 Q90G it is ~2.8 ratio CENP-A101-225/H4:CAL11-160.

For chain 2 S54Q, the response was ~3.5 ratio CENP-A101-225/H4:CAL11-160.

As to chain 2 S54Q, chain 2 M86A, the response is ~2.9 ratio CENP-A101-225/H4:CAL11-160.

In the next assay the parent is B2. In words: Ni-NTA pull-down, band intensity quantification; parent: 3; read off a plot.
For the variant chain 1 W22R, chain 1 F29R, the response was ~0.42 ratio CENP-A101-225/H4:CAL11-160.

With chain 1 F29A, the response is ~3.2 ratio CENP-A101-225/H4:CAL11-160. On the same count and under the same terms, the figure for chain 1 F29R is ~2.6 ratio CENP-A101-225/H4:CAL11-160; for chain 1 W22A, chain 1 F29A it is ~0.38 ratio CENP-A101-225/H4:CAL11-160; for chain 1 F43R it is ~1.8 ratio CENP-A101-225/H4:CAL11-160. Same read-out and setting: the figure for chain 1 W22R is ~0.7 ratio CENP-A101-225/H4:CAL11-160.

In a further assay the parent is B3. In words: LacO/LacI tethering assay in U2OS cells (fluorescence intensity of CAL1-V5 at the tethering site); parent: 1.1e+03; read off a plot.
As to chain 1 W22R, chain 1 F29R, the response was roughly 20 a.u. Still for that read-out and setting: with chain 1 W22A, chain 1 F29A the figure was roughly 110 a.u.

For the origin of these results see article PMC7110144 (2020).
